Peptide text beside a SMILES is read from it.
What was measured:
plasma FN [1] = target: T1, plasma FN (Homo sapiens, UniProt P02751); experiment: Size exclusion chromatography of FN-AFpolypeptide complex; type: binding; details: from half-life lower limit by Eq 4, read-out: k off estimated from size exclusion chromatography
Experimental: (§1) Fractions of 0.5 ml were collected and assayed. FN was monitored by absorbance at 280 nm by NanoDrop 2000 UV-Vis Spectrophotometer (Thermo Scientific, Wilmington, DE) and AFpolypeptide by Tecan Genios Pro microplate reader with excitation 485 nm and emission 535 nm. FN, AFFUD or AFBbk32 was analyzed by itself as a control. The k off of FN-AFFUD complex was estimated by estimating the lower limit of half-life (t1/2) of complex decay and the following equation: t1/2 = 0.693/koff (4)
(§2) To corroborate the estimates from stopped-flow fluorimetry of k off for the FN-FUD or FN-Bbk32 interaction by a second method, size exclusion chromatography of the FN-AFFUD or FN-AFBbk32 complex was carried out. […] Elution patterns of FN alone (Fig 6C), AFFUD alone (Fig 6D), and AFBbk32 alone (Fig 6E) are also shown. FN eluted at 20 min. We estimate, therefore, that the half-life of FN-AFFUD is longer than 20 min and, according to Eq, the k off of FN-AFFUD is < 10^-3 s^-1, which is more than 20-fold slower than that estimated for FN-AFBbk32 by Eq or the displacement experiment (Table 1).
Fig 6 FPLC size exclusion of FN-AFFUD or FN-AFBbk32 complex. […] Absorbance at 280nm (A^280nm), and emission at 535 nm upon excitation at 485 nm (E^535nm) were measured to estimate, respectively, concentration of FN and AFpolypeptide and expressed relative to the values in starting material. […]

plasma FN [2] = target: T1, plasma FN; experiment: Stopped-flow fluorimetry (crossed polarizers), direct binding of AFpolypeptide to a series of FN concentrations; details: as restated in text from Table 1; read-out: k on of FN-AFpolypeptide interaction
Experimental: (§3) Measurements were in TBS with 100mM NaCl at 25°C. Reactants separated in two syringes were injected by SFA-20 rapid kinetics accessory (Hi-Tech Scientific, Salisbury, England) into the cuvette for mixing in QuantaMaster 300 spectrofluorimeter (Photon Technology International, Edison, New Jersey) with excitation and emission polarizers of 90 degree. The excitation and emission wavelength were 485nm and 535 nm respectively. Upon mixing the fluorescence intensity were recorded at a rate of 10 points/sec during the reaction procedure. In the absence of FN or FN70K, there was no change in fluorescence polarization for any of the AFpolypeptides.
In direct binding assays, AFFUD, AFHADD, AFFRD or AFBbk32, 10 nM, was mixed with a series of FN concentrations or with FN70K at 100 nM. AFΔBbk32 was studied only with FN at 100 nM. For each experiment, four or five curves were generated, and k obs was calculated by F(t) = Fmin+(Fmax-Fmin)e^-kobst (1) where F(t) is fluorescence intensity at time point t. Fmax or Fmin is maximum or minimum fluorescence intensity, and the rate constant k is k obs. […]
Stopped-flow fluorimetry with crossed-polarizers was performed to study on-off kinetics of the FN-AFpolypeptide interactions. Upon mixing 10 nM AFFUD, AFHADD, AFFRD or AFBbk32 with increasing concentration (100, 200, 300, 400, or 500 nM) of FN, decreases of fluorescence intensity were observed (Fig 3). […]

plasma FN [3] = target: T1, plasma FN; experiment: Stopped-flow displacement of AFpolypeptide from FN complex by unlabeled polypeptide (or size exclusion chromatography); type: binding; details: 1 μM unlabeled polypeptide, over 180 sec (Fig 3E-H)
Experimental: as §3
In displacement assays, unlabeled FUD, HADD, FRD, Bbk32, or ΔBbk32 in 10-fold molar excess of FN or FN70K was mixed with complex of AFpolypeptide and FN or FN70K. For ΔBbk32, only displacement from FN was measured. The k off value is calculated by Ft = Fmin+Fmax-Fmin1-e^-kofft (3) in which k off is the dissociation rate constant. The k on of FN70K-AFpolypeptide was determined by Eq based on [FN70K] and the k off of FN70K-AFpolypeptide obtained from Eq.
Fractions of 0.5 ml were collected and assayed. FN was monitored by absorbance at 280 nm by NanoDrop 2000 UV-Vis Spectrophotometer (Thermo Scientific, Wilmington, DE) and AFpolypeptide by Tecan Genios Pro microplate reader with excitation 485 nm and emission 535 nm. […]

FN70K fragment = target: T2, FN70K fragment (Homo sapiens, UniProt P02751); experiment: Size exclusion chromatography of FN70K-AFpolypeptide complex; type: binding; details: data not shown, read-out: k off estimated from size exclusion chromatography
T2 construct: the FN70K domain comprising the N-terminal ^1-9FNI and ^1-2FNII modules of FN; from tissue; host or cells: proteolytic fragment of FN
Experimental: as §1, §2

[4] = target: FN70K fragment (N-terminal 70-kDa region of fibronectin); experiment: fluorescence polarisation; stopped-flow with crossed polarizers, direct binding at a single concentration: 10 nM AFpolypeptide mixed with 100 nM FN70K; kon from kobs and the koff of displacement (koff taken as 0 for FUD and HADD); TBS with 100 mM NaCl, 25°C
[5] = target: FN70K fragment (N-terminal 70-kDa region of fibronectin); experiment: fluorescence polarisation; stopped-flow with crossed polarizers, displacement: 10 nM AFpolypeptide pre-mixed 30 min with 100 nM FN or FN70K, then 1 uM of the same unlabeled polypeptide; single exponential fit; TBS with 100 mM NaCl, 25°C
plasma fibronectin (FN) [6] = target: plasma fibronectin (FN) (UniProt P02751); experiment: as above
[7] = target: FN70K fragment (N-terminal 70-kDa region of fibronectin); experiment: fluorescence polarisation; KD calculated as koff/kon from the stopped-flow on-rate and the off-rate of the stopped-flow displacement
plasma fibronectin (FN) [8] = target: plasma fibronectin (FN) (UniProt P02751); experiment: as above
plasma fibronectin (FN) [9] = target: plasma fibronectin (FN) (UniProt P02751); experiment: fluorescence polarisation; stopped-flow with crossed polarizers, direct binding: 10 nM AFpolypeptide mixed with 100, 200, 300, 400 or 500 nM FN; kobs against [FN], kon from the slope, koff from the y-intercept; TBS with 100 mM NaCl, 25°C
plasma fibronectin (FN) [10] = target: plasma fibronectin (FN) (UniProt P02751); experiment: fluorescence polarisation; stopped-flow with crossed polarizers, displacement: 10 nM AFpolypeptide pre-mixed 30 min with 100 nM FN or FN70K, then 1 uM of the same unlabeled polypeptide; single exponential fit; TBS with 100 mM NaCl, 25°C; remark: listed apart in the source
[11] = target: FN70K fragment (N-terminal 70-kDa region of fibronectin); experiment: SEC; data not shown: the same size exclusion experiment as for FN-AFFUD, with FN70K-AFFUD, FN-AFHADD or FN70K-AFHADD
plasma fibronectin (FN) [12] = target: plasma fibronectin (FN) (UniProt P02751); experiment: SEC; 400 nM FN and 40 nM AFFUD or AFBbk32 mixed 30 min in TBS with 100 mM NaCl, Superose 6 10/300 at 0.5 ml/min; FN by A280, AFpolypeptide by fluorescence; koff from the lower limit of the half-life
[13] = target: FN70K fragment (N-terminal 70-kDa region of fibronectin); experiment: fluorescence polarisation + SEC; KD limit calculated as koff/kon from the stopped-flow on-rate and the upper limit of koff by chromatography
plasma fibronectin (FN) [14] = target: plasma fibronectin (FN) (UniProt P02751); experiment: as above
plasma fibronectin (FN) [15] = target: plasma fibronectin (FN) (UniProt P02751); experiment: SEC; data not shown: the same size exclusion experiment as for FN-AFFUD, with FN70K-AFFUD, FN-AFHADD or FN70K-AFHADD
plasma fibronectin (FN) [16] = target: plasma fibronectin (FN) (UniProt P02751); experiment: ELISA; competitive: FN coated on 96-well plate (50 ul, 20 nM); 0.5 nM b-FUD or b-Bbk32 mixed with unlabeled FUD or Bbk32 at 1, 10, 100 or 1000 nM, 1 h; bound biotinylated polypeptide detected with enzyme-conjugated (strept)avidin

T1 sequence (P02751 32-609): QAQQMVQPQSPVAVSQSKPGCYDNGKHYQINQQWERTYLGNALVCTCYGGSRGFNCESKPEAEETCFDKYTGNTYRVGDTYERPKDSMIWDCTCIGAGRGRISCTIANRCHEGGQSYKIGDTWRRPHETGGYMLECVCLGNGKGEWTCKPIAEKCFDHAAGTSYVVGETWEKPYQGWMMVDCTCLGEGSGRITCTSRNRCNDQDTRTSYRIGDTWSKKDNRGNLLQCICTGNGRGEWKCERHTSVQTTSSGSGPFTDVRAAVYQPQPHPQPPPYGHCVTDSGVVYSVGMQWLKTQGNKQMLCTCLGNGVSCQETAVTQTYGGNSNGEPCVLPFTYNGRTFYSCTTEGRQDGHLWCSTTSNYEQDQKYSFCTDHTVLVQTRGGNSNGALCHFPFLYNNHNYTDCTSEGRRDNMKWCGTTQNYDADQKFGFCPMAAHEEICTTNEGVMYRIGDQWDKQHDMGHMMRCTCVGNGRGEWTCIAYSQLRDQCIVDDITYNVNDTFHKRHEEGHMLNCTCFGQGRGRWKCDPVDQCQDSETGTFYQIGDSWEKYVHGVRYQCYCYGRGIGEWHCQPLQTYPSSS
T2 sequence (P02751 32-609 limits assumed): as the sequence (P02751 32-609) above

For C[C@H](N)C(=O)N[C@@H](Cc1ccccc1)C(=O)N[C@@H](Cc1c[nH]cn1)C(=O)N[C@@H](C)C(=O)N[C@@H](CC(=O)O)C(=O)N[C@@H](CC(=O)O)C(=O)O [AFHADD] (H-AFHADD-OH), the koff (plasma FN [1]) was under 0.001 s⁻¹, the kon (plasma FN [2]) was 430000 M⁻¹ s⁻¹ and the “reversal of fluorescence intensity decrease on displacement” value (plasma FN [3]) was “less than 10%”. For the same molecule, the koff (FN70K fragment) was under 0.001 s⁻¹.

Work on “AFBbk32 (Bbk32 labeled with Alexa 488 on the N-terminal cysteine) (domain or fragment)” yielded a kon [4] of 2.4e+06 M⁻¹ s⁻¹, a koff [5] of 0.033 s⁻¹ and a koff (plasma fibronectin (FN) [6]) of 0.025 s⁻¹. For the same molecule, the Kd [7] was 14 nM, the Kd (plasma fibronectin (FN) [8]) was 140 nM and the koff (plasma fibronectin (FN) [9]) was 0.036 to 0.041 s⁻¹. The kon (plasma fibronectin (FN) [9]) was 180000 M⁻¹ s⁻¹.

Molecule “AFFRD (FRD labeled with Alexa 488 on the N-terminal cysteine) (domain or fragment)” has a kon [4] of 4.1e+06 M⁻¹ s⁻¹, a koff [5] of 0.013 s⁻¹ and a koff (plasma fibronectin (FN) [6]) of 0.021 s⁻¹. For the same molecule, the koff (plasma fibronectin (FN) [10]) was 0.02 s⁻¹, the Kd [7] was 3.1 nM and the Kd (plasma fibronectin (FN) [8]) was 70 nM. It also gave a koff (plasma fibronectin (FN) [9]) of 0.027 to 0.039 s⁻¹ and a kon (plasma fibronectin (FN) [9]) of 290000 M⁻¹ s⁻¹.

“AFFUD (FUD labeled with Alexa 488 on the N-terminal cysteine) (domain or fragment)” showed a kon [4] of 3.9e+06 M⁻¹ s⁻¹, a percent of the fluorescence intensity decrease reversed over 180 sec by 1 uM unlabeled polypeptide (plasma fibronectin (FN) [6]) of under 10% and a koff [11] of under 0.001 s⁻¹. It also gave a half-life of the complex (plasma fibronectin (FN) [12]) of over 20 min, a koff (plasma fibronectin (FN) [12]) of under 0.001 s⁻¹ and a percent of AFFUD eluting with FN (plasma fibronectin (FN) [12]) of 100%. The kon (plasma fibronectin (FN) [9]) was 390000 M⁻¹ s⁻¹, the Kd [13] was under 0.26 nM and the Kd (plasma fibronectin (FN) [14]) was under 2.6 nM.

“AFHADD (HADD labeled with Alexa 488 on the N-terminal cysteine) (domain or fragment)” showed a kon [4] of 9.7e+06 M⁻¹ s⁻¹, a percent of the fluorescence intensity decrease reversed over 180 sec by 1 uM unlabeled polypeptide (plasma fibronectin (FN) [6]) of under 10% and a koff [11] of under 0.001 s⁻¹. The koff (plasma fibronectin (FN) [15]) was under 0.001 s⁻¹, the kon (plasma fibronectin (FN) [9]) was 430000 M⁻¹ s⁻¹ and the Kd [13] was under 0.1 nM. It also gave a Kd (plasma fibronectin (FN) [14]) of under 2.3 nM.

“Bbk32, unlabeled (version with the N-terminal cysteine) (domain or fragment)” showed an IC50 (plasma fibronectin (FN) [16]) of 30 nM and a percent of b-FUD binding to FN left at 1000 nM Bbk32 (plasma fibronectin (FN) [16]) of over 60%.

With “FUD, unlabeled (version with the N-terminal cysteine) (domain or fragment)” the IC50 (plasma fibronectin (FN) [16]) was 10 nM.
